Laboratory results from publication PMC7230020.

Target: activated RecA (RecA*), E. coli RecA polymerised on ssDNA with ATPγS (E. coli) (UniProt P0A7G6)
Assay: fluorescence polarisation

activated RecA (RecA*), E. coli RecA polymerised on ssDNA with ATPγS (E. coli), sequence (P0A7G6 whole entry): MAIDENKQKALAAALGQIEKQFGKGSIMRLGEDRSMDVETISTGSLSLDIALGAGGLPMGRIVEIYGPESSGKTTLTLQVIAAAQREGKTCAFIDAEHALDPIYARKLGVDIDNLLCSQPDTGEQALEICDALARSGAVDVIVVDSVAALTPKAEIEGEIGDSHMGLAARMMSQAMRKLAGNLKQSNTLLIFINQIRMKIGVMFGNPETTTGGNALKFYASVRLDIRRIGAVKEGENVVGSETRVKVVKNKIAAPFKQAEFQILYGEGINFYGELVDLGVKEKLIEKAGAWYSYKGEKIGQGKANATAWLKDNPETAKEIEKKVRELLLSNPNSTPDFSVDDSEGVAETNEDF

| fold decrease in apparent affinity for RecA* against LexA-S119A | Substance |
| --- | --- |
| > 10 fold | LexA G80P, full-length cleavage loop variant (from UniProt P0A7C2 1-202) (natural protein) |
| > 10 fold | LexA V82M, full-length cleavage loop variant (from UniProt P0A7C2 1-202) (natural protein) |
